According to patent US9765346B2, “Biological methods for preparing a fatty dicarboxylic acid” (Verdezyne, Inc., priority 2011, dated 2017):

Molecular target: T1, Pox5 (Candida tropicalis, UniProt P08790)
T1 construct: made in house; host or cells: E. coli Rosetta II BL21, pET26b; crude cell lysate (10 ug per reaction)
Format: biochemical, Candida strain ATCC20336
Method: To express an enzyme, a colony from each transformation of Rosetta cells was used to start a 5 ml overnight culture of LB containing the antibiotics kanamycin (to select for pET26b) and chloramphenicol (to select for a second plasmid found in Rosetta II cells that mediates improved translation of eukaryotic proteins expressed in E. coli) grown at 37° C. The next morning, the overnight culture was used to seed 30 ml of LB containing kanamycin and chloramphenicol to an OD600 reading of 0.1. The 30 ml cultures were grown at 37° C. for 2 hours and then placed on ice for 10 minutes. To induce expression, isopropyl-beta-D-thiogalactopyranoside (IPTG) was added to the culture to a final concentration of 0.1 mM. In some cases induction was performed using Novagen Overnight Express Autoinduction System 1 (CAT#71300-3). The cells were then shaken at 15° C. overnight to express the acyl CoA oxidase.
To test the activity of the acyl CoA oxidase, cells from the overnight induction were pelleted at 1046×g at 4° C. in 50 ml conical tubes. The cell pellets were resuspended in 1 ml of 50 mM KPO4, pH 7.6, 50 μM FAD buffer and then transferred to a 2 ml centrifuge tube. A Misonix Sonicator 3000 (QSonica, Newtown, Conn.) was used to lyse the cells, which were sonicated at a power setting of 2 for 2 pulses of 20 seconds each. The lysates were placed on ice for 30 seconds in between each pulse. To obtain a supernatant, cell debris was pelleted at […] for 10 mins in a 4° C. microcentrifuge. The supernatant was transferred to a 1.5 ml centrifuge tube and Bradford assays (Thermoscientific) were performed on cell lysates according to manufacturer's specifications to determine protein concentration in preparation for the acyl-CoA oxidase assays. A Beckman Coulter DTX-800 Multimode Detector spectrophotometer was used for the assays. The spectrophotometer was set to read for 5 minutes at 500 nm, 30° C. Each reaction was 200 μl in volume and contained 10 μg of cell lysate in 50 mM KPO4, pH 7.6, […] BSA, 0.05% Triton X-100, 250 μM fatty acyl-coA substrate, 50 μM FAD, 10 U horseradish peroxidase, 25 mM p-hydroxybenzoic acid and 1 mM 4-aminoantipyrine. Fatty acyl-CoA substrates covered a range from hexanoyl CoA (six carbon chain length) to oleoyl CoA (eighteen carbon chain length).
Pox4 and Pox5 from Candida strain ATCC20336 were cloned into pET26b for expression in E. coli and assayed for acyl CoA oxidase activity in vitro. The activity profiles of the genetically modified Pox4 and Pox5 were compared to the activity profile of the wild type enzymes. To alter their substrate activity profile, site directed mutagenesis was performed on several locations in Pox4 and Pox5. Complementary primers encoding the point mutation(s) were used to amplify the coding sequences of Pox4 or Pox5 generating two to four PCR products that were then “stitched” together to regenerate the entire coding region using overlap extension PCR (FIG. 22). […] PCR was performed using oligonucleotides A and B to produce a product with overlap to a PCR product generated using oligonucleotides C and D. The A-B product was used as a primer for the C-D product, and vice versa, for overlap extension. Several mutagenic primer pairs, for example, like the B-C primer pair, were used to produce mutations at different locations that were “stitched” together, i.e. A-B, C-D, E-F, etc. to generate an intact, full length coding region. […]

[1] = wild type, expressed in E. coli

For “Pox5: native acyl-CoA oxidase isozyme of Candida strain ATCC20336”, the “activity on C6 and C8 substrates” value (FIG. 21, wild type) was “low activity”, the “activity on substrates below C10” value (FIG. 21, wild type) was “decrease in activity” and the substrate specificity (native isozyme) was “narrow substrate specificity”. For the same substance, the “activity on a C6 substrate” value [1] was “not very active” and the “substrates on which active” value [1] was “C8 all the way to C18:1”.
